According to the RNAGym collection of RNA variant scans (doi:10.7554/elife.80360):

B1: Twister Ribozyme (parent)
chain: AACACUGCCAAUGCCGGUCCCAAGCCCGGAUAAAAGUGGAGGGGGCGG

Variants of: B1
Experiment: self-cleavage, relative activity (ratio to wild type); higher = more cleavage; co-transcriptional

Row | Variant | self-cleavage
1 | AACACUGCCAAUGACGGUCCCAAGCCCGGAUAACAGUGGAGGGGGCGG | 0.426
2 | AACACUGCCAAUGACGGUCCCAAGCCCGGAUAAGAGUGGAGGGGGCGG | 0.88
3 | AACACUGCCAAUCCCGGUCCCAAGCCCGGAUAAAAGUGGAGGGAGCGG | 0.584
4 | AACACUGCCAAUUCCGGUCCCAAGCCCUGAUAAAAGUGGAGGGGGCGG | 0.466
5 | AACACUGCCAAUUCCGGUCCCAAGCCCAGAUAAAAGUGGAGGGGGCGG | 0.543
6 | AACACUGCCAAUUCCGGUCCCCAGCCCGGAUAAAAGUGGAGGGGGCGG | 0.708
7 | AACACUGCCAAUUCCGGUCCCAAGCCCGGAUCAAAGUGGAGGGGGCGG | 0.595
8 | AACACUGCCAAUGACUGUCCCAAGCCCGGAUAAAAGUGGAGGGGGCGG | 0.394
9 | AACACUGCCAAUGACAGUCCCAAGCCCGGAUAAAAGUGGAGGGGGCGG | 0.641
10 | AACACUGCCAAUUGCGGUCCCAAGCCCGGAUAAAAGUGGAGGGGGCGG | 0.512
11 | AACACUGCCAAUUACGGUCCCAAGCCCGGAUAAAAGUGGAGGGGGCGG | 0.687
12 | AACACUGCCAAUUCCGGUCCCAAGCCCGAAUAAAAGUGGAGGGGGCGG | 0.368
13 | AACACUGCCAAUGACGGUCCCAAGCCCGGAUGAAAGUGGAGGGGGCGG | 0.857
14 | AACACUGCCAAUGACGGUCCCAAGCCCGGAUAAAAGUGGAGGGGUCGG | 0.698
15 | AACACUGCCAAUGACGGUCCCAAGCCCGGAUAAAAGUGGAAGGGGCGG | 0.591
16 | AACACUGCCAAUGACGGUCCCAAGCCCGGAUAAAAGUGGAUGGGGCGG | 0.55
17 | AACACUGCCAAUUCCGGUCCCAAGCCCGGAUAAAAGUGUAGGGGGCGG | 0.0998
18 | AACACUGCCAAUUCCGGUCCCAAGCCCGGAUAAAAGUGCAGGGGGCGG | 0.11
19 | AACACUGCCAAUGACGGUCCCAAGCCCGGAUAAAAGUGCAGGGGGCGG | 0.154
20 | AACACUGCCAAUGACGGUCCCAAGCCCGGAUAAAAGUGUAGGGGGCGG | 0.198
21 | AACACUGCCAAUUCCGGUCCCAAGCCCGGAUAAAAGUCGAGGGGGCGG | 0.6
22 | AACACUGCCAAUUCCGGUCCCAAGCCCGGAUAAAAGUUGAGGGGGCGG | 0.303

Row | Variant | self-cleavage
23 | AACACUGCCAAUUCCGGUCCCAAGCCCGGAUAACAGUGGAGGGGGCGG | 0.083
24 | AACACUGCCAAUUCCGGUCCCAAGCCCGGAUAAUAGUGGAGGGGGCGG | 0.199
25 | AACACUGCCAAUUCCGGUCCCAAGCCCGGACAAAAGUGGAGGGGGCGG | 0.639
26 | AACACUGCCAAUGACGGUCCCAAGCCCCGAUAAAAGUGGAGGGGGCGG | 0.757
27 | AACACUGCCAAUGACGGUCCCAAGCCCUGAUAAAAGUGGAGGGGGCGG | 0.854
28 | AACACUGCCAAUGACGGUCCCAAGCCCAGAUAAAAGUGGAGGGGGCGG | 0.818
29 | AACACUGCCAAUCCCGGUCCCAAGCCCGGAUAAAAGUGGAGGUGGCGG | 0.128
30 | AACACUGCCAAUUCCGGUCCCAAGCCCGGAUAAAAGUGGAGGAGGCGG | 0.143
31 | AACACUGCCAAUGACGGUCCCAAGCCCGGAUAAAAGUCGAGGGGGCGG | 0.861
32 | AACACUGCCAAUGACGGUCCCAAGCCCGGAUAAAAGUAGAGGGGGCGG | 0.874
33 | AACACUGCCAAUUCCGGUCCCAAGGCCGGAUAAAAGUGGAGGGGGCGG | 0.0724
34 | AACACUGCCAAUGACGGUCCCAAGCCCGGAUAAAACUGGAGGGGGCGG | 0.351
35 | AACACUGCCAAUGACGGUCCCAAGCCCGGAUAAAAAUGGAGGGGGCGG | 0.651
36 | AACACUGCCAAUGACGGUCCCAAGCCCGGAUAAAAUUGGAGGGGGCGG | 0.221
37 | AACACUGCCAAUCCCGGUCCCAAGCCCGGAUAAAAGAGGAGGGGGCGG | 0.075
38 | AACACUGCCAAUUCCGGUCCCAAGCCCGGAUAAAAGUGGAGGGGGCUG | 0.197
39 | AACACUGCCAAUGACGGUCCCAAGCCCGGAUAAAUGUGGAGGGGGCGG | 0.789
40 | AACACUGCCAAUGACGGUCCCAAGCCCGGAUAAACGUGGAGGGGGCGG | 0.863
41 | AACACUGCCAAUGAUGGUCCCAAGCCCGGAUAAAAGUGGAGGGGGCGG | 0.746
42 | AACACUGCCAAUGAGGGUCCCAAGCCCGGAUAAAAGUGGAGGGGGCGG | 0.31
43 | AACACUGCCAAUGAAGGUCCCAAGCCCGGAUAAAAGUGGAGGGGGCGG | 0.885
44 | AACACUGCCAAUUCCGGUCCCAAGCCCGGAUACAAGUGGAGGGGGCGG | 0.563

Row | Variant | self-cleavage
45 | AACACUGCCAAUGACGGUCCCAAGCCCGGAUAAAAGUGGAGGGUGCGG | 0.883
46 | AACACUGCCAAUGACGGUCCCAAGCCCGGUUAAAAGUGGAGGGGGCGG | 0.968
47 | AACACUGCCAAUGACGGUCCCUAGCCCGGAUAAAAGUGGAGGGGGCGG | 0.657
48 | AACACUGCCAAUGACGGUCCCCAGCCCGGAUAAAAGUGGAGGGGGCGG | 1.09
49 | AACACUGCCAAUGACGGUCCCGAGCCCGGAUAAAAGUGGAGGGGGCGG | 0.407
50 | AACACUGCCAAUUCCGGUCCCAAGCCCGGAUAAAAGGGGAGGGGGCGG | 0.119
51 | AACACUGCCAAUUCCGGUCCCAAGCCCGGAUAAAAGAGGAGGGGGCGG | 0.133
52 | AACACUGCCAAUGACGUUCCCAAGCCCGGAUAAAAGUGGAGGGGGCGG | 0.361
53 | AACACUGCCAAUUCCGGUCCCAAGCCCGGAUAAAAGUGGAGGGGGCGC | 0.456
54 | AACACUGCCAAUUCCGGACCCAAGCCCGGAUAAAAGUGGAGGGGGCGG | 0.0935
55 | AACACUGCCAAUUCCGGCCCCAAGCCCGGAUAAAAGUGGAGGGGGCGG | 0.0744
56 | AACACUGCCAAUUCCGGGCCCAAGCCCGGAUAAAAGUGGAGGGGGCGG | 0.0548
57 | AACACUGCCAAUGACGGUCCCAAGCCUGGAUAAAAGUGGAGGGGGCGG | 0.75
58 | AACACUGCCAAUCCCGGUCCCAAGCCCGGAUAAAAGUGGAGGGGUCGG | 0.144
59 | AACACUGCCAAUUCCGGUCCUAAGCCCGGAUAAAAGUGGAGGGGGCGG | 0.0908
60 | AACACUGCCAAUUCCGGUCCCAAGCCCGGAUAAACGUGGAGGGGGCGG | 0.587
61 | AACACUGCCAAUUCCGGUCCCAAGCCCGGAUAAAUGUGGAGGGGGCGG | 0.696
62 | AACACUGCCAAUUCCGGUCCCAAGCCCGGAUAAAAGUGGAGGGCGCGG | 0.488
63 | AACACUGCCAAUUCCGGUCCCAAGCCCGGAUAAAAGUGGCGGGGGCGG | 0.129
64 | AACACUGCCAAUUCCGGUCCCAAGCCCGGAUAAAAGUGGUGGGGGCGG | 0.16
65 | AACACUGCCAAUUCCGGUCCCAACCCCGGAUAAAAGUGGAGGGGGCGG | 0.0723
66 | AACACUGCCAAUUCAGGUCCCAAGCCCGGAUAAAAGUGGAGGGGGCGG | 0.11

Row | Variant | self-cleavage
67 | AACACUGCCAAUUCUGGUCCCAAGCCCGGAUAAAAGUGGAGGGGGCGG | 0.317
68 | AACACUGCCAAUUCGGGUCCCAAGCCCGGAUAAAAGUGGAGGGGGCGG | 0.108
69 | AACACUGCCAAUCCCGGUCCCAAGCCCGGACAAAAGUGGAGGGGGCGG | 0.552
70 | AACACUGCCAAUUCCGGUCCCAAGCCCGGAUAAAAGUGGAGGGGACGG | 0.308
71 | AACACUGCCAAUGACGGUCCCAAGCCCGGAUAAAAGUGGAGGGGGAGG | 0.773
72 | AACACUGCCAAUGACGGUCCCAAGCCCGGAUAAAAGUGGAGGGGGUGG | 0.827
73 | AACACUGCCAAUGACGGUCCCAAGCCCGGAUAAAAGUGGAGGUGGCGG | 0.456
74 | AACACUGCCAAUGACGGUCCUAAGCCCGGAUAAAAGUGGAGGGGGCGG | 0.138
75 | AACACUGCCAAUUCCGGUCCCAGGCCCGGAUAAAAGUGGAGGGGGCGG | 0.0827
76 | AACACUGCCAAUUCCGGUCGCAAGCCCGGAUAAAAGUGGAGGGGGCGG | 0.1
77 | AACACUGCCAAUUCCGGUCACAAGCCCGGAUAAAAGUGGAGGGGGCGG | 0.0934
78 | AACACUGCCAAUCCCGGUCCCAAGCCCGGAUAAAAGUGGAGGGGGCGA | 0.115
79 | AACACUGCCAAUCCCGGUCCCAAGCCCGGAUAAAAGUGGAGGGGGCGU | 0.217
80 | AACACUGCCAAUCCCGGUCCCAAGCCCGGAUAAAAGUGGAGGGGGCGC | 0.249
81 | AACACUGCCAAUGACGGUCCCAAGCGCGGAUAAAAGUGGAGGGGGCGG | 0.118
82 | AACACUGCCAAUUCCAGUCCCAAGCCCGGAUAAAAGUGGAGGGGGCGG | 0.302
83 | AACACUGCCAAUGACGGUCCCAUGCCCGGAUAAAAGUGGAGGGGGCGG | 0.508
84 | AACACUGCCAAUGACGGUCCCAGGCCCGGAUAAAAGUGGAGGGGGCGG | 0.525
85 | AACACUGCCAAUGACGGUCUCAAGCCCGGAUAAAAGUGGAGGGGGCGG | 0.977
86 | AACACUGCCAAUGACGGUCCCAAGCCCGUAUAAAAGUGGAGGGGGCGG | 0.903
87 | AACACUGCCAAUGACGGUCCCAAGCCCGAAUAAAAGUGGAGGGGGCGG | 0.974
88 | AACACUGCCAAUGACGGUCCCAAGCCCGCAUAAAAGUGGAGGGGGCGG | 0.947

Row | Variant | self-cleavage
89 | AACACUGCCAAUUCCGUUCCCAAGCCCGGAUAAAAGUGGAGGGGGCGG | 0.101
90 | AACACUGCCAAUUCCGAUCCCAAGCCCGGAUAAAAGUGGAGGGGGCGG | 0.078
91 | AACACUGCCAAUUCCGGUCCCAAGCUCGGAUAAAAGUGGAGGGGGCGG | 0.109
92 | AACACUGCCAAUUCCGGUCCCAAGCGCGGAUAAAAGUGGAGGGGGCGG | 0.0668
93 | AACACUGCCAAUUCCGGUACCAAGCCCGGAUAAAAGUGGAGGGGGCGG | 0.0828
94 | AACACUGCCAAUUCCGGUUCCAAGCCCGGAUAAAAGUGGAGGGGGCGG | 0.0924
95 | AACACUGCCAAUGACGGUCCCAAGCCCGGAUAAAAGUGGUGGGGGCGG | 0.143
96 | AACACUGCCAAUGACGGUCCCAAGCCCGGAUAUAAGUGGAGGGGGCGG | 0.908
97 | AACACUGCCAAUUCCGGUCCCAAGCCCGGCUAAAAGUGGAGGGGGCGG | 0.665
98 | AACACUGCCAAUUCCGGUCCCAAGCCCGGGUAAAAGUGGAGGGGGCGG | 0.926
99 | AACACUGCCAAUGACGGUCCCAAGGCCGGAUAAAAGUGGAGGGGGCGG | 0.657
100 | AACACUGCCAAUGACGGUCCCAAGUCCGGAUAAAAGUGGAGGGGGCGG | 0.699
101 | AACACUGCCAAUGACGGUCCCAAGACCGGAUAAAAGUGGAGGGGGCGG | 0.242
102 | AACACUGCCAAUCCCGGUCCCAAGCCCGGAUAAAAGUGGAGAGGGCGG | 0.12
103 | AACACUGCCAAUUCCGGUCCCAAGCCCGGAUAAAAGUGGAUGGGGCGG | 0.104
104 | AACACUGCCAAUUCCGGUCCCAAGCCCGGAUAAAAGUGGAAGGGGCGG | 0.0904
105 | AACACUGCCAAUUCCGGUCCCAAGCCCGGAUAAAAAUGGAGGGGGCGG | 0.13
106 | AACACUGCCAAUUCCGGUCCCAAGCCCGGAUAAAACUGGAGGGGGCGG | 0.0949
107 | AACACUGCCAAUCCCGGUCCCAAGCCCGGAUAAAAGUGAAGGGGGCGG | 0.118
108 | AACACUGCCAAUCCCGGCCCCAAGCCCGGAUAAAAGUGGAGGGGGCGG | 0.0885
